Measured values published in paper PMC10496494.

Legend:
[1] = biological target: NPM1 (human wildtype nucleophosmin, residues 1 to 290) (human) (UniProt P06748); experiment: SPR; Biacore T200; NPM1 immobilised on CM5 chip by amine coupling, DDX24 injected in a concentration series; PBS with 0.05% Tween-20 and 1% DMSO, pH 7.4, 25 °C; Langmuir 1:1 binding model
[2] = biological target: DDX24^E271K (DDX24 with the p.Glu271Lys mutation of MOVLD patients) (human) (UniProt Q9GZR7); experiment: SPR; Biacore T200; DDX24 immobilised on CM5 chip by amine coupling, NPM1 injected in a concentration series; PBS with 0.05% Tween-20 and 1% DMSO, pH 7.4, 25 °C; Langmuir 1:1 binding model

Sequence of NPM1 (human wildtype nucleophosmin, residues 1 to 290) (human) (P06748 1-290): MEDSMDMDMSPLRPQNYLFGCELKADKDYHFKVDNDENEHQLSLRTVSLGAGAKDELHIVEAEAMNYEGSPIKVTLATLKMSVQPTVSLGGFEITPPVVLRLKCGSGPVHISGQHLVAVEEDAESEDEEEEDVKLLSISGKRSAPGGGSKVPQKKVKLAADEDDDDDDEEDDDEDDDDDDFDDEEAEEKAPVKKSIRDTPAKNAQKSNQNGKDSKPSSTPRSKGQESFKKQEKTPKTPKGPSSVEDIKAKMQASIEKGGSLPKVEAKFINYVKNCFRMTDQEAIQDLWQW
Sequence of NPM1 (human wildtype nucleophosmin, residues 1 to 290) (P06748 1-290): as above

## DDX24^E271K (DDX24 with the p.Glu271Lys mutation of MOVLD patients) (from UniProt Q9GZR7 28-859) (enzyme)
[1]
  Kd: 5.5 nM
  koff: 0.00316 s⁻¹
  kon: 575000 M⁻¹ s⁻¹

## NPM1 (human wildtype nucleophosmin, residues 1 to 290) (from UniProt P06748 1-290) (natural protein)
[2]
  Kd: 2.92 nM
  koff: 0.00165 s⁻¹
  kon: 564000 M⁻¹ s⁻¹
